Source: publication PMC6075034

B1: 25-bp dsRNA (RNA-25 + complementary RNA; RNA-25C is printed identical to RNA-25, apparent misprint, complement built) (dsRNA)
RNA 1: GUGUAAUGUUGUUGCACGGCACGCU
RNA 2: AGCGUGCCGUGCAACAACAUUACAC
B2: 25-bp RNA-DNA hybrid (RNA-25/DNA-25C) (DNA:RNA)
RNA: GUGUAAUGUUGUUGCACGGCACGCU
DNA: AGCGTGCCGTGCAACAACATTACAC

The binders below were run against T1, Yra1 (Saccharomyces cerevisiae, UniProt Q12159 1-226) (assay: EMSA).
T1 sequence: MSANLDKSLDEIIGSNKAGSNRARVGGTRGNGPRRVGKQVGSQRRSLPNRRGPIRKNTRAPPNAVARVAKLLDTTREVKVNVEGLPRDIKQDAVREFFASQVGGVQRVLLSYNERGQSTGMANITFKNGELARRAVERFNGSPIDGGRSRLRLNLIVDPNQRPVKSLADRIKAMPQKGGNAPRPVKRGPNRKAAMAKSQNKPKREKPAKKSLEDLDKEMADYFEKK

Binding result, binds:
B1
B2
GUGUAAUGUUGUUGCACGGCACGCU (ssRNA) [RNA-25 ssRNA]
AGCGTGCCGTGCAACAACATTACAC (ssDNA) [DNA-25C ssDNA]
